Results taken from US20120213781A1.
Bridges are numbered along the chain shown (N, C = ends). Where no end group is shown, it is not given here.

Molecular target: recombinant human angiopoietin-2 (rhAng2) (human) (UniProt O15123)
Test: direct ELISA on rhAng2-coated wells, detection by HRP-anti-His tag antibody, OD450

Chain of UniProt O15123 (O15123 19-496 limits assumed): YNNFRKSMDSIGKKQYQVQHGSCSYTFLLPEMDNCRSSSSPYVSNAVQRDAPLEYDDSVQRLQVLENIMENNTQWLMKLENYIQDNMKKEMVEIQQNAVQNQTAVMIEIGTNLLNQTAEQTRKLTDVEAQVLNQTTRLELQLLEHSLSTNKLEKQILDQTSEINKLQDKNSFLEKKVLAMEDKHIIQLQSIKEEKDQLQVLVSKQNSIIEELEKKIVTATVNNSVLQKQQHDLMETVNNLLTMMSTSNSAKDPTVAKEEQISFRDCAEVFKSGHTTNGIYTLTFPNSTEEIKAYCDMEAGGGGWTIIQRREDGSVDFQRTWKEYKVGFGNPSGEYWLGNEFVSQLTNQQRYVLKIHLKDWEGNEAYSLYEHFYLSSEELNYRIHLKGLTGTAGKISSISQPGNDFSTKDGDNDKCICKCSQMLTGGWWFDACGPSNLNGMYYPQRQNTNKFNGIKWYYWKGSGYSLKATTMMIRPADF

EC50 (read off the curve)	Binder
9 nM	LWDDCYSFPNPPHCYNSP (designed binder, not shown: small tags and cut ends, disulfide 5-14 (inferred); not fully specified (N-terminus, C-terminus); also: ELP-MRD fusion, type and number of ELP repeats not given here) [Construct 12]
9 nM	LWDDCYSFPNPPHCYNSP (designed binder, not shown: small tags and cut ends, disulfide 5-14 (inferred); not fully specified (N-terminus, C-terminus); also: ELP-MRD fusion, type and number of ELP repeats not given here) [Construct 13]
